This is an account of results in the RNAGym collection of RNA variant scans (doi:10.1073/pnas.2313332121).

The labels stand for the following.
B1: TPR 5TU (parent)
chain: GGAUCUUCUCGAUCUAACAAAAAAGACAAAUCUGCCACAAAGCUUGAGAGCAUCUUCGGAUGCAGAGGCGGCAGCCUUCGGUGGCGCGAUAGCGCCAACGUUCUCAACUAUGACACGCAAAACGCGUGCUCCGUUGAAUGGAGUUUAUCAUG

This sample holds only a part of the variants without activity. Some results are limits rather than exact numbers.

This series covers variants of B1. As to the kind of experiment: polymerase ribozyme fitness, log enrichment relative to wild type (log ratio); higher = more active; in vitro selection for triplet polymerase activity. The gist of the method: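 The heterodimeric triplet polymerase ribozyme's subunits were each mutagenized into PCR-built libraries and transcribed. Every library was selected once, in triplicate, by annealing with a biotinylated primer, the partner subunit and triplets, incubating frozen at −7 °C, gel-excising extended constructs, capturing on streptavidin beads and running RT-PCR. Input and output libraries were Illumina-sequenced, with genotypes kept only at ≥10 input reads and ≥1 read per output. Fitness, from inverse-variance-weighted replicate averages, is the base-2 logarithm of genotype enrichment over wild-type enrichment.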
GGAUAUUCUCGAUCUAACAAAAAAGACAAAUCUGCCUCAAAGCUUGAGAGUAUCUACGGAUGCAGAGGCGGCAGCCUUAGGUGGCGCGAUAGCGCGAACGUUCUCAACUAUGACAGGCAAAACGCGUGCUCCCUUGAAUGGAGUUUAUCAUG: the “polymerase ribozyme fitness (log ratio)” value was ≤ -4.2.
Under GGAUAUUCUCGAUCUAACAUUAAAGACAAAUCUGCCACAAAGCUUGAGAGCAUCUUCGGAUGCAGAGGCGGCAGCCUUCGGUGGCGCGAUAGCGCCAACGUUCUCAGCUAUGACACGCAAAACGCGUGCUCCGUUGAAUGGAGUCUAUUAUG stands ≤ -4.2; under GGAUAUUCUCGAUCUUACAAAAAAGACAAAUCUGCCACAAAGCUUGAGAGCGUCUUCGGAUGCAGAGGCGGCAGCCUUCGGUGGCGCGAUAGCGCCAACGUUCUCGACUAUGACACGCAAAACGCGUGCUCCGUUGAAUGGAGUUUAUCAUG, -3.09; under GGAUAUUCUCGAUCUAACAAAAAAGACGAAUCUGGCUCAAAGCUUGAGAGCAUCUUCGGAUGCAGAGGCGGCAGCCUUCGGUGGGGCGAUAGCGCGAACGUUGUCAACUAUGACACGCAAAACGCGUGCUCCGUUGAAUGGAGUUUAUCAAG, -3.65.
Under GGAUAUUCUCGAUCUUACAAAAAUGACAAAUCUGACACAAAGCUUGAGAGCAUCUACGGAUGCAGAGGCGGCAGCCUUCGGUGGGGCGAUAGCGCCAACGUUCUCAACGAUGACACGCAAAACGCGUGCUCCGUUGAAUGGAGCUUAUCAUG stands ≤ -4.2.
On to GGAGCUUCUCGAUCUAACAAAAAAGACAAAUCCGCCACAAAGCUUGAGAGCAUCUUCGGAUGCAGAGGCGGCAGCCUUCGGUGUCGCGAUAGCGCCAACGUUCUCAACUAUGACACGCAUAACGCGUGCCCUGUUGAAUGGAGUUUAUCAUG, for which the “polymerase ribozyme fitness (log ratio)” value is ≤ -4.2.
Under GGAUAUUCUCGAUCUCACAAAAAAGACAAAUCUGCCACAAAGCUUGAGAACAUCUUCGGAUGCAGAGGCGGCAGCUUUCGGUGGCCCGAUAGCGCCAACGUUCUCAACUAUGACACGCAAAACGCGUGCUCCGUUGAAUGGAGGUUAUCAUG stands ≤ -4.2; under GGAUAUUCUCGAUCUAACAAGAAAGACAAAUCUGCCACAAAGCUUGAGAGCAUCUUCGGAUGCAGAGGCGGCAGCCUUCGGUGGCGCCAUAGCGCCAACGUUCUCAACUAUGACACGCAAAACGCGUGCUCCGUUGAAUGGAGUUUAUCAUG, -4.09; under GGAGCUUCUCGAUCUAACAAAAAAGACAAAUCUGCCACAAAGCUUGAGAGCAUCUGCGGAUGCAGAGGCGGCAGCCUUCGGUGGAGCGAUAGCGCCAACGUUCUCAACUAUGACACGCAAAACGCGUGCUCCGUUGAAUGCAGUUUAUCAUG, -2.61.
Consider GGAUAUUCUCGAUCUUACAAAAAAGACAAAUCUGCCACAAAGCUUCAGAGCAUCUUCGGAUGCAGAGGCGGCAGCCUUCGGUGUCGCGAUGGCGCCAACGUUCUCAACCAUGACUCGCAAAACGCGUGCUCCGUUCAAUGGAGUUUAUCAUG, for which the “polymerase ribozyme fitness (log ratio)” value was ≤ -4.2.
Under GGAUAUUCUCGAUCUAACAAAAAGGACAAAUCUGCCACAAAGCUUGAGAGCAUCUUCGGAUGCCGAGACGGCAGCUUUUGGUCGCGCGAAAGCGGCAACGUUCUCAACUAUGACUCGCAAAACGCGUGCUCCGUUGAGUGGAGUUUAUCAUG stands ≤ -4.2.
GGAUAUUCUCGAUCUAUCAAAAAAGACAAAUCUGCCACAAAACUUGAGAGCAUCUUCGGAUGCAGAGGCGGCAGCCUUCGGUCGCGCGAUAGCGCCAACGUACUCAACUAUGACACGCUAAACGCUUGCUCCGUUGAAUGUAGUUUAUCAUG: the “polymerase ribozyme fitness (log ratio)” value was ≤ -4.2.
As for GGAGCUUCUCGAUCUAACAAAAAAGACAAAGCUGCCACAAAGCUUGAGACCAUCUUCGGAUGCAGAGACGGCAGACUUCGGUGGCUCGAUAGCGUCAACGAUCUCAACUAUGACACGCAAAACGCGUGCUCCGUUGAAUGGAGUUUAUCAUG, the “polymerase ribozyme fitness (log ratio)” value was ≤ -4.2.
Take GGAUAUUCUCGAUCUAACUAAAAAGACAAAUCUGCCACAAAGCUUGAGAGCAUCUUCGGAUGCAGAGGCGGCAGCCUUCGGUGGCCCGAUAGCGCCAACGUUCUCAACUAUGACACGCAAAACGCGUGCUCCGUUGAAUGGAGUUUAUCAUG: the “polymerase ribozyme fitness (log ratio)” value was -3.47.
Under GGAUAUUCUCGAUCUAACAAAAAAGUCAAAUCUGCCACAAAGCUUGAGAGCGUCUUCGGAUGCAGAGGCGGCAGCCUUCGGUGGCACCAUAGCGCCAACGUUCUCAACUAUGUCACGCAAAACGCGUGCUCCGUUGAAUGAAGUUUAUCAUG stands ≤ -4.2; under GGAGCUUCUCGAUCUAACAAAAAAGACAAAUCUGCCACAAAGCUUGAGAGCAUCUACGGCUGCAGAGGCGGCAGCGUUCGGUGGCGCGAUCGCGUCAACGUUCUCAACUAUGACACGCAAAACGCGUGCUCCGUUGAAUGGCGUUUAUCAUG, ≤ -4.2.
With GGAUAUUCUCGAUCUAACACAAAAGACAAAUCUGACACAAAGCUUGAGAGCAUCUUCGGAUACAGAGGCGGCAGCAUUCGGUGGCGCGAUAGCGCGAACGUUCUCAACUAUGACACGCAAAACGCGUGCUCCGUUGAAUAGACUUUAUCAUG, the “polymerase ribozyme fitness (log ratio)” value was ≤ -4.2.
As to GGAUAUUCUCGAUCUAACAAAAAAGACAAAUCUGCCACAGAGCUUGAGAGCAUCUUCGGAUGCAGAGGCGGCAGCCUUCGGUGGCGUGAUAGCGCCAACGUUCUCAACUAUGACACGCAAAACGCGUGCUCCGUUGAAUGGAGUUUAUCAUG, the “polymerase ribozyme fitness (log ratio)” value was -2.81.
Consider GGAGCUUCUCGAUCUAACAAAAAAGACAAAUCUGCCACAAAGCUUGAGAGCAUCGUCGGAUGCAGAGGCGGCAGCCUUCGGUGGCGCGAUAGCGCCAACGUUCUCAACUAUGACACGCAAAACGCGUGCUCCGUUGAAUGGAGUUUAUCAUG, for which the “polymerase ribozyme fitness (log ratio)” value was -0.607.
